Data reported in the RNAGym collection of RNA variant scans (doi:10.7554/elife.90254).

B1: LINE1-mini (parent)
chain: GGCAGAGCUCAACACAGCGUGGCAAAGUGGCUGUGGCUAGACUGCC

Variants of: B1
Assay: self-cleavage, relative activity (ratio to wild type); higher = more cleavage; in vitro, sequencing; the parent is a self-cleaving ribozyme

Variant | self-cleavage
GGCAGAGCUCAACAGAGCGUGGCAAAGUGGCUGUGGCAAGACUGCC [C15G U38A] | 0.03
GGCAGAGCUCAACAGAGCGUGGCAAAGUGGCUGUGGCCAGACUGCC [C15G U38C] | 0.03
GGCAGAGCUCAACAGAGCGUGGCAAAGUGGCUGUGGCGAGACUGCC [C15G U38G] | 0.03
GGCAGAGCUCAACAGAGCGUGGCAAAGUGGCUGUGCCUAGACUGCC [C15G G36C] | 0.03
GGCAGAGCUCAACAGAGCGUGGCAAAGUGGCUGUGUCUAGACUGCC [C15G G36U] | 0.04
GGCAGAGCUCAACAGAGCGUGGCAAAGUGGCUGUGACUAGACUGCC [C15G G36A] | 0.06
GGCAGAGCUCAACAGAGCGUGGCAAAGUGGCUGUCGCUAGACUGCC [C15G G35C] | 0.13
GGCAGAGCUCAACAGAGCGUGGCAAAGUGGCUGUAGCUAGACUGCC [C15G G35A] | 0.04
GGCAGAGCUCAACAGAGCGUGGCAAAGUGGCUGUUGCUAGACUGCC [C15G G35U] | 0.03
GGCAGAGCUCAACAGAGCGUGGCAAAGUGGCUCUGGCUAGACUGCC [C15G G33C] | 0.25
GGCAGAGCUCAACAGAGCGUGGCAAAGUGGCUAUGGCUAGACUGCC [C15G G33A] | 0.03
GGCAGAGCUCAACAGAGCGUGGCAAAGUGGCUUUGGCUAGACUGCC [C15G G33U] | 0.36
GGCAGAGCUCAACAUAGCGUGGAAAAGUGGCUGUGGCUAGACUGCC [C15U C23A] | 2.82
GGCAGAGCUCAACAUAGCGUGGGAAAGUGGCUGUGGCUAGACUGCC [C15U C23G] | 0.81
GGCAGAGCUCAACAUAGCGUGGUAAAGUGGCUGUGGCUAGACUGCC [C15U C23U] | 1.91
GGCAGAGCUCAACAUAGCGUGGCAAAGUGGCUGUGGCUCGACUGCC [C15U A39C] | 0.18
GGCAGAGCUCAACAUAGCGUGGCAAAGUGGCUGUGGCUGGACUGCC [C15U A39G] | 0.11
GGCAGAGCUCAACAUAGCGUGGCAAAGUGGCUGUGGCUUGACUGCC [C15U A39U] | 0.72
GGCAGAGCUCAACAGAGCGGGGCAAAGUGGCUGUGGCUAGACUGCC [C15G U20G] | 0.03

Variant | self-cleavage
GGCAGAGCUCAACAGAGCGCGGCAAAGUGGCUGUGGCUAGACUGCC [C15G U20C] | 0.03
GGCAGAGCUCAACAGAGCGAGGCAAAGUGGCUGUGGCUAGACUGCC [C15G U20A] | 0.09
GGCAGAGCUCAACAUAGCGUGGCAAAGUGGCUGUGGCUAGACUGUC [C15U C45U] | 0.79
GGCAGAGCUCAACAUAGCGUGGCAAAGUGGCUGUGGCUAGACUGAC [C15U C45A] | 0.21
GGCAGAGCUCAACAUAGCGUGGCAAAGUGGCUGUGGCUAGACUGGC [C15U C45G] | 0.2
GGCAGAGCUCAACAUUGCGUGGCAAAGUGGCUGUGGCUAGACUGCC [C15U A16U] | 0.1
GGCAGAGCUCAACAUCGCGUGGCAAAGUGGCUGUGGCUAGACUGCC [C15U A16C] | 0.13
GGCAGAGCUCAACAUGGCGUGGCAAAGUGGCUGUGGCUAGACUGCC [C15U A16G] | 0.42
GGCAGAGCUCAACAGAGCGUGGCAAAUUGGCUGUGGCUAGACUGCC [C15G G27U] | 0.04
GGCAGAGCUCAACAGAGCGUGGCAAAAUGGCUGUGGCUAGACUGCC [C15G G27A] | 0.05
GGCAGAGCUCAACAGAGCGUGGCAAACUGGCUGUGGCUAGACUGCC [C15G G27C] | 0.05
GGCAGAGCUCAACAUAGCGUGGCAACGUGGCUGUGGCUAGACUGCC [C15U A26C] | 1.74
GGCAGAGCUCAACAUAGCGUGGCAAUGUGGCUGUGGCUAGACUGCC [C15U A26U] | 0.74
GGCAGAGCUCAACAUAGCGUGGCAAGGUGGCUGUGGCUAGACUGCC [C15U A26G] | 0.88
GGCAGAGCUCAACAUAGCGUGCCAAAGUGGCUGUGGCUAGACUGCC [C15U G22C] | 0.53
GGCAGAGCUCAACAUAGCGUGUCAAAGUGGCUGUGGCUAGACUGCC [C15U G22U] | 0.78
GGCAGAGCUCAACAUAGCGUGACAAAGUGGCUGUGGCUAGACUGCC [C15U G22A] | 1.21
GGCAGAGCUCAACAUAGCGUGGCAAAGUGGUUGUGGCUAGACUGCC [C15U C31U] | 0.09
GGCAGAGCUCAACAUAGCGUGGCAAAGUGGAUGUGGCUAGACUGCC [C15U C31A] | 0.06

Variant | self-cleavage
GGCAGAGCUCAACAUAGCGUGGCAAAGUGGGUGUGGCUAGACUGCC [C15U C31G] | 0.06
GGCAGAGCUCAACAUAUCGUGGCAAAGUGGCUGUGGCUAGACUGCC [C15U G17U] | 0.11
GGCAGAGCUCAACAUACCGUGGCAAAGUGGCUGUGGCUAGACUGCC [C15U G17C] | 0.19
GGCAGAGCUCAACAUAACGUGGCAAAGUGGCUGUGGCUAGACUGCC [C15U G17A] | 0.07
GGCAGAGCUCAACAGAGCGUCGCAAAGUGGCUGUGGCUAGACUGCC [C15G G21C] | 0.17
GGCAGAGCUCAACAGAGCGUAGCAAAGUGGCUGUGGCUAGACUGCC [C15G G21A] | 0.08
GGCAGAGCUCAACAGAGCGUUGCAAAGUGGCUGUGGCUAGACUGCC [C15G G21U] | 0.07
GGCAGAGCUCAACAGAGCGUGGCAAAGUGCCUGUGGCUAGACUGCC [C15G G30C] | 0.08
GGCAGAGCUCAACAGAGCGUGGCAAAGUGACUGUGGCUAGACUGCC [C15G G30A] | 0.07
GGCAGAGCUCAACAGAGCGUGGCAAAGUGUCUGUGGCUAGACUGCC [C15G G30U] | 0.03
GGCAGAGCUCAACAGAGCGUGGCAAAGUGGCUGUGGCUAGACUGCU [C15G C46U] | 0.06
GGCAGAGCUCAACAUAGCGUGGCAAAUUGGCUGUGGCUAGACUGCC [C15U G27U] | 1.36
GGCAGAGCUCAACAUAGCGUGGCAAACUGGCUGUGGCUAGACUGCC [C15U G27C] | 0.87
GGCAGAGCUCAACAUAGCGUGGCAAAAUGGCUGUGGCUAGACUGCC [C15U G27A] | 1.41
GGCAGAGCUCAACAUAGCGUGGCACAGUGGCUGUGGCUAGACUGCC [C15U A25C] | 1
GGCAGAGCUCAACAUAGCGUGGCAUAGUGGCUGUGGCUAGACUGCC [C15U A25U] | 0.77
GGCAGAGCUCAACAUAGCGUGGCAGAGUGGCUGUGGCUAGACUGCC [C15U A25G] | 0.17
GGCAGAGCUCAACAUAGCGUGGCAAAGUGGCUGUGGCUAGACUGCC [C15U] | 1.03
